Reference: publication PMC8219104 (2021)

Legend:
[1] = target: T1, SARS-CoV-2 spike receptor-binding domain (RBD), amino acids 333 to 529, bacteria-expressed and refolded (SARS-CoV-2, UniProt P0DTC2 333-529); test: SPR
[2] = target: T1, SARS-CoV-2 spike receptor-binding …; test: SPR; remark: listed apart in the source

Row | Binder | koff [1] | Kd [2]
1 | Sybody Sb68 (VHH) VHH: QVQLVESGGGSVQAGGSLRLSCAASGSISSITYLGWFRQAPGKEREGVAALITVNGHTYYADSVKGRFTVSLDNAKNTVYLQMNSLKPEDTALYYCAAAAWGYAWPLHQDDYWYWGQGTQVTVSA | 0.023 s⁻¹ | –
2 | Sybody Sb15 (VHH) VHH: QVQLVESGGGLVQAGGSLRLSCAASGFPVKNFEMEWYRKAPGKEREWVAAIQSGGVETYYADSVKGRFTISRDNAKNTVYLQMNSLKPEDTAVYYCFVYVGRSYIGQGTQVTVS | 0.011 s⁻¹ | –
3 | Sybody Sb14 (VHH) VHH: QVQLVESGGGLVQAGGSLRLSCAASGFPVQAREMEWYRQAPGKEREWVAAIKSTGTYTAYAYSVKGRFTISRDNAKNTVYLQMNSLKPEDTAVYYCYVYVGSSYIGQGTQVTVSA | 0.007 s⁻¹ | 13.8 nM
4 | Sybody Sb16 (VHH) VHH: QVQLVESGGGLVQAGGSLRLSCAASGFPVAYKTMWWYRQAPGKEREWVAAIESYGIKWTRYADSVKGRFTISRDNAKNTVYLQMNSLKPEDTAVYYCIVWVGAQYHGQGTQVTVSA | 0.02 s⁻¹ | 40.6 nM
